Our source for the ratio to parent values is article PMC10798645.

Assay [1] addresses SARS-CoV-2 Omicron (BA.1) Spike (pCAGGS-SARS-CoV-2 BA.1 Spike) (UniProt P0DTC2). The settings on record: parent: est. 1.0; read off a plot.
Assay [2] concerns the target SARS-CoV-2 Wuhan-1 Spike (S), C-terminal 6xHis (pcDNA5) (UniProt P0DTC2). The settings on record: parent: est. 1.0; read off a plot.

For “HA-tagged full-length BST2 (pcDNA5) (from UniProt Q10589) EC2Ala”, the ratio to parent was 1 in assay [1] and 0.74 in assay [2].
